Reference: the supplement of paper PMC9732359
± gives the uncertainty stated by the source.

Experiment: protein stability index of a GFP-peptide fusion (yeast GPS) (PSI 1-4); higher = more stable; sorted into four equal gates, so the index is relative within each strain
Method in brief: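 Tiled 17-residue peptides from yeast proteins were fused downstream of GFP on a plasmid that also expresses Cherry, and the pooled library was carried in yeast. Mid-log cultures grown in leucine-free medium were sorted into four equal gates by GFP/Cherry fluorescence ratio. Plasmids from each gate were PCR-amplified and Illumina-sequenced, and reads were assigned to strains by barcodes. Each peptide's protein stability index is the sum, over gates, of the gate's read frequency multiplied by its gate number.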

Row | Sequence | protein stability index (doa10∆) | protein stability index (pdr5∆) | protein stability index (san1∆) | protein stability index (ubr1∆)
1 | QMMSKGIGALFTQQELQ [RPC34] | 3.3 ± 0.11 | 3.26 ± 0.12 | 3.12 ± 0.07 | 3.34 ± 0.08
2 | DVNTNANANANATANAT [SNF11] | 3.13 ± 0.088 | 3.27 ± 0.081 | 3.23 ± 0.045 | 3.32 ± 0.063
3 | NLTRGINLRKVAEKMNG [RPT6] | 1.63 ± 0.069 | 1.47 ± 0.05 | 2.31 ± 0.052 | 1.28 ± 0.044
4 | MSEQQWREQLRNRDIAL [ROX3] | 2.98 ± 0.071 | 2.85 ± 0.056 | 3 ± 0.054 | 2.42 ± 0.048
5 | LGEEHPLQVARCTKIIK [RPT1] | 2.18 ± 0.082 | 2.78 ± 0.073 | 2.75 ± 0.082 | 2.39 ± 0.085
6 | EASNTPIEHQFNPYGDN [PRE7] | 3.15 ± 0.08 | 3.33 ± 0.089 | 3.54 ± 0.091 | 3.38 ± 0.086
7 | SAGNDKMVKAWNLNQFQ [ASC1] | 2.46 ± 0.044 | 2.38 ± 0.054 | 2.15 ± 0.065 | 2.36 ± 0.041
8 | SQPFIKFLNFRPPNGIK [SSN2] | 2.65 ± 0.052 | 2.31 ± 0.05 | 2.23 ± 0.06 | 2.4 ± 0.039
9 | EPNLAAQQDSTNVRLYS [ECM29] | 2.88 ± 0.11 | 2.9 ± 0.063 | 2.81 ± 0.089 | 2.37 ± 0.074
10 | TAETGYIQRRLVKALED [RPO21] | 2.31 ± 0.073 | 2.74 ± 0.074 | 2.69 ± 0.076 | 2.74 ± 0.072
11 | GAHGYSGFYTFSLLDHH [PRE1] | 2.94 ± 0.19 | 2.44 ± 0.16 | 2.92 ± 0.098 | 2.76 ± 0.12
12 | DNIGEIDESLFNLLILS [YCG1] | 2.96 ± 0.13 | 3.02 ± 0.11 | 2.31 ± 0.16 | 3.1 ± 0.14
13 | IQIFRAHLWQKIHESIV [PRP8] | 2.4 ± 0.098 | 2.52 ± 0.09 | 2.59 ± 0.073 | 2.47 ± 0.074
14 | TSGEAAALGMGLCMLGT [RPN2] | 2.92 ± 0.19 | 2.95 ± 0.21 | 3.08 ± 0.12 | 2.68 ± 0.1
15 | PMHSIMPNSSLQPFYSQ [DSN1] | 2.12 ± 0.072 | 2.65 ± 0.061 | 2.37 ± 0.083 | 2.49 ± 0.048
16 | ASRDKTLISWKLTGDDQ [ASC1] | 1.32 ± 0.14 | 1.68 ± 0.13 |  | 1.61 ± 0.094
17 | LEEKKKRPNNKTLEKLE [IRR1] | 3.55 ± 0.14 | 3.43 ± 0.1 | 3.39 ± 0.092 | 3.27 ± 0.13
18 | FVVPTFGQDVSPMINST [SNM1] | 2.94 ± 0.084 | 2.89 ± 0.085 | 2.89 ± 0.056 | 2.84 ± 0.067
19 | FKYLLGVTDLFRHFIGI [ISW2] | 2.17 ± 0.056 | 1.35 ± 0.048 | 1.25 ± 0.12 | 1.3 ± 0.071
20 | NVNMTVNTMGTGGQTID [MED6] | 3.23 ± 0.3 | 3.44 ± 0.12 | 3.06 ± 0.14 | 3.37 ± 0.29
21 | FLSKPSKALYPDYYMII [SNF2] | 2.31 ± 0.037 | 2.4 ± 0.045 | 2.19 ± 0.047 | 2.54 ± 0.035
22 | FIPHGLKRRQVIEQCYL [SRB8] | 2.78 ± 0.074 | 2.63 ± 0.08 | 2.46 ± 0.1 | 2.44 ± 0.049
23 | SEGYQKTFSRLDALTRH [RPN4] | 1.17 ± 0.091 | 1.56 ± 0.15 | 1.06 ± 0.24 | 
24 | VDFDGLDIKRVGSENVE [SNF12] | 3.3 ± 0.19 | 3.32 ± 0.14 | 3.49 ± 0.24 | 3.35 ± 0.1
25 | VKDWLYDSRPLEEDSKK [PRP8] | 2.95 ± 0.19 | 2.91 ± 0.24 | 2.8 ± 0.12 | 
26 | PILAPSVKDYRPAEETE [RPS3] | 3 ± 0.056 | 3.13 ± 0.051 | 3.174 ± 0.03 | 2.92 ± 0.04
27 | PYLPKHYLVLLVAKFLY [YJR042W/NUP85] | 1.3 ± 0.084 | 1.28 ± 0.06 | 1.16 ± 0.15 | 1.21 ± 0.052

Row | Sequence | protein stability index (doa10∆) | protein stability index (pdr5∆) | protein stability index (san1∆) | protein stability index (ubr1∆)
28 | TDLKKIIKANQLILSDV [RET1] | 2.57 ± 0.055 | 2.34 ± 0.053 | 2.48 ± 0.053 | 2.39 ± 0.05
29 | WAADSVSSRVRGYTCQF [FAS1] | 2.56 ± 0.29 | 2.62 ± 0.15 | 2.71 ± 0.11 | 2.69 ± 0.13
30 | VMPVPNVRSSVLQKVIE [SKP1] | 2.33 ± 0.05 | 2.43 ± 0.052 | 2.38 ± 0.052 | 2.35 ± 0.045
31 | DEKDYLTNQQPKNLSTP [CSE2] | 3.04 ± 0.083 | 2.87 ± 0.081 | 3.21 ± 0.059 | 3.27 ± 0.069
32 | VLAAQSIGEPATQMTLN [RPO21] | 2.69 ± 0.055 | 3 ± 0.051 | 2.87 ± 0.042 | 2.91 ± 0.048
33 | DVKFPSNTTTQIQFTPL [SMC3] | 2.59 ± 0.16 | 2.64 ± 0.15 | 2.98 ± 0.14 | 2.76 ± 0.052
34 | AKKLPNGNWEVGVHIAD [DIS3] | 1.61 ± 0.16 | 2.25 ± 0.15 | 2.51 ± 0.19 | 3.25 ± 0.16
35 | ILQILDQDELVQPPLDK [SWP82] | 2.58 ± 0.068 | 2.68 ± 0.11 | 2.62 ± 0.074 | 2.48 ± 0.11
36 | GRLDRKVEIPLPNEAGR [RPT4] | 3.16 ± 0.13 | 3.27 ± 0.1 | 3.11 ± 0.065 | 3.09 ± 0.1
37 | QISIIDIWSISKKRQAE [YML031W/NDC1] | 2.32 ± 0.056 | 2.63 ± 0.052 | 2.54 ± 0.053 | 2.79 ± 0.039
38 | TKTNVDNNSKAEASFTF [YLR335W/NUP2] | 3.05 ± 0.063 | 3.24 ± 0.067 | 3.07 ± 0.045 | 3.13 ± 0.046
39 | LEPGCSVLLHHKTMSIV [RPT2] | 1.39 ± 0.067 | 1.58 ± 0.049 | 1.38 ± 0.087 | 1.61 ± 0.04
40 | EAPAGNIDTITDAMTES [MCD1] | 2.8 ± 0.079 | 3.04 ± 0.052 | 2.96 ± 0.072 | 3.16 ± 0.057
41 | TVMYQRRSKMNPLWNAI [PRE4] | 2.83 ± 0.084 | 3.18 ± 0.11 | 2.66 ± 0.089 | 3.09 ± 0.072
42 | ERDFYHSLREYINGKAT [RPO31] | 2.58 ± 0.044 | 2.43 ± 0.044 | 2.9 ± 0.037 | 1.75 ± 0.023
43 | SEAFPSLQSCSVAVHFQ [SMC4] | 1.77 ± 0.1 | 2.09 ± 0.082 | 2.39 ± 0.095 | 1.79 ± 0.056
44 | YVDTATAKRKSRKRKPK [IRR1] | 3.17 ± 0.1 | 3.32 ± 0.1 | 3.14 ± 0.16 | 3.12 ± 0.066
45 | EFIFGTYNMIDAAAEKR [ARP7] | 2.99 ± 0.057 | 3.02 ± 0.057 | 3.08 ± 0.044 | 3.12 ± 0.04
46 | RFFWKRSTNKKSKILRK [UBP6] | 1.19 ± 0.19 |  |  | 1.28 ± 0.16
47 | LSEAWRCWKANIPWDVP [PRP8] | 2.15 ± 0.11 | 2.16 ± 0.098 | 1.1 ± 0.15 | 3.42 ± 0.15
48 | QWLNNALKRSYGIFGEG [POP8] | 2.8 ± 0.08 | 3.02 ± 0.059 | 3.08 ± 0.07 | 3.15 ± 0.071
49 | GSLWVEFCDEPSVGVKT [RPB5] | 2.84 ± 0.054 | 2.86 ± 0.076 | 3 ± 0.093 | 2.92 ± 0.053
50 | MSNQALYEKLEQTRTIL [SRB6] | 3.11 ± 0.3 |  |  | 
51 | EPILGQITLTFISELCS [YML103C/NUP188] | 2.6 ± 0.06 | 2.32 ± 0.062 | 3.1 ± 0.055 | 3.02 ± 0.044
52 | ADYWTHAYRDVLAQYHE [SNF6] | 3.02 ± 0.071 | 3.23 ± 0.08 | 3.06 ± 0.058 | 2.81 ± 0.049
53 | DPKFVNSLLAKLKDSKK [YML103C/NUP188] | 2.54 ± 0.2 | 2.86 ± 0.1 | 1.99 ± 0.15 | 2.54 ± 0.082
